In patent US20260234667A1 one finds migration of B cells to 100 ng/ml ITAC (CXCL11), fold increase against control cells, migration of CD4 cells to 100 ng/ml ITAC (CXCL11), fold increase against control cells and migration of CD8 cells to 100 ng/ml ITAC (CXCL11), fold increase against control cells data, which are given here for one molecule.

This assay has as its target human CXCR3 isoform 1 (human) (UniProt P49682). The assay is described as follows: cell-based or functional assay.
Sequence of UniProt P49682 (P49682 whole entry, canonical isoform): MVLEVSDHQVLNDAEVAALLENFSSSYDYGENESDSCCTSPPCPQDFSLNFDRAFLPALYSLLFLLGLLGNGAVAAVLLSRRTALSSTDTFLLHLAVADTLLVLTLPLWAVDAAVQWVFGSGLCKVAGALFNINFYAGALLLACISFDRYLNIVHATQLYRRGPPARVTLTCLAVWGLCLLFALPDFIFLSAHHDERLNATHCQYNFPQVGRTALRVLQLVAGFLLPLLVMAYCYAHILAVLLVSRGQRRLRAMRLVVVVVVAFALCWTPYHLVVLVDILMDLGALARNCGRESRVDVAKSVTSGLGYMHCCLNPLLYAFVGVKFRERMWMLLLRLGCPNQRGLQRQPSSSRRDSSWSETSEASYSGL

B1: ITAC (CXCL11) (ligand, UniProt O14625 22-94, looked up, species assumed)
C-X-C motif chemokine 11: FPMFKRGRCLCIGPGVKAVKVADIEKASIMYPSNNCDKIEVIITLKENKGQRCLNPKSKQARLIIKKVERKNF
In turn, B1 gave a migration of B cells to 100 ng/ml ITAC (CXCL11), fold increase against control cells of 10 fold; a migration of CD4 cells to 100 ng/ml ITAC (CXCL11), fold increase against control cells greater than 4 fold; a migration of CD8 cells to 100 ng/ml ITAC (CXCL11), fold increase against control cells of 2.5 fold.
